Assay results reported in the DeepSol protein solubility set.

Assay: soluble on expression in E. coli; label from the status in PepcDB or PDB records

Soluble on expression in E. coli, not soluble:
MGSDKIHHHHHHMPINKLALVRYKTIDSCLQNRFRKWTLEDLMEACSDALYEYEGMTKGISRRTIQLDIQNMRSEKLGYNAPIIVTDKKFYSYEDKGYSITNSPLTQQDLGTLVEVLDVLKQFKGFGYFQELTGMVTRLEDKLYTHQHKGKSYIDFEKNELLKGLQHIDLLHKAIINKKTVDILYQSFKAASAQNITFYPYLLKEYRNRWFILGCNKRTKATMILALDRIEQFKELRSEKYMKPDFDVATYFDDVIGVSKMPNQEPQLIVCKISKEHAPYIITKPIHASQQIIRGEKDGTVFSIHVIWNFELERELLGFGEQLQVLAPRRIQGKLRARMKRAVAAYESEKKE, MGSDKIHHHHHHMPINSFENYPMTWKPKLDNRKPPIYKTLAMLLEEDIKRGNLNPGDKLPPQRELADFLDLNLSTITRAFKLCEEKGLICAKVGKGTFISSDVNVSNTLLYQTESKDIIELGTVHPPYEQNTYIIDFIKNVLKQPEMDRFLQYMSPSGTYMQKKSIAKWIERNNVYTSEENILLSTGGQNAICATLLGLFKAGDRIATDSLSFSGIKSIAKMIGIQLVPIPQENNEISIEYLESYCKNENIKGIYLIPDYHNPTTHTMSDLSRKKIAKIAKQYNIIIIEDAINSIFRDGIQTPIFSLASDNTIYIFSTSKFLCAGLRVAFVVAPKRYIENLENALYNMNLMVSPFTAEIVHRLLYSPIIDKIIEEKRDAIIERNEVADKVLSDYNLIGDKNCSFRWLLLPDELDGKSFEISAKNLGVQVYCAERFSVGNSTVPKAVRICVTAPKDVEELEKGLNIIKSLLKS, MGSDKIHHHHHHMPIVTIGIDLAKNIFAVHGVDEAGKAMLIKPRVPRDQLATLIAQLPACLIGMEACSGAHHWARLFQQHGHTVKLMAPNLVAPYRMSGKRGKNDAADAAAICEAVARPSMRFVPLKDEHQQATLCLHRTRQGFVEERTATYNRLRGLLPEFGVVLPQSPEKLRRYVTEHLDALPGWAKRSIGDLLEHAGHIEDRLLEYDRAIAEIAREDARSKRLMQLRGVGPTTASALLASIGAGRDFRNGRQVAAWIGLTPGQYSSGGKARLGSITKAGDAYLRGLLVNGARAVIANLGEKQDRFSRWVRTLIERRGYWRAAVAIAAKNARLAWASLKYGEDFKLEPAAD, MGSDKIHHHHHHMPKRIVKLEAGYNCRDLGGYVSQDGRTVKWGRLYRSGSLSHLTKADQAELARRKIVVDCDLRSRHEQDNFPDKLWPGSKLVDAHFYSESGDEEEEAEAAWEKYSSKLPKLSYLAMVYQQNLVVPRTGLVMREIFKEMLDLEDDEALLYHCSMGKDRTGMVSVIVLMALGLEDREILRDYLLSREYSRDWDEADENDRLGKQIAKMNQTQVSQTAFYGITETIRQMWGGFDRYFASLGFDQGDLDRLRDKFLE, MGSDKIHHHHHHMPKSVQDDAIEAGTLLSVQGLTVGLPPGMDRRYAVEDMSFDLKAGEILCIIGESGSGKSVTANATMGLLAQSLHIVSGSIMLEGQELVGADAATLRALRGRIVSMIFQDPLSALNPLMTVGDQIAEVMEAHGIGTQQERRARVLDLITEVGLPDPELMQHQYPFRLSGGQRQRVMIAMALALEPKVLIADEPTTALDVTTQAQILELIASIQRRKQMSVMFITHDFGVVAEIADRVIVMEKGHVVEQGSASVVLKSPDHPYTQRLIAAVPRMRASDRENEADTPVVLEARNLCKTYGTGSGFLSKGRVIKAVDDVSFTIAKGRTLGIVGESGSGKSSLGRLLVKLMNSDSGEILFGGRDIAPLSEEAFRSMRPYIQMIFQDPFASLNPRQTIGRILTVGPVAQATPIHEARTRAMRLLERVGLDAGAYDRYPHEFSGGQRQRIGIARALMFNPMLIVADEAVSALDVSIQAQILQLLTEVQQEMKLAMAFITHDLRVASQICDEIAVMYKGRIVEYGPPSQIFRNPTHDYTRQLVSAIPGTEWEPAVMV, MGSDKIHHHHHHMPLLDIRNLTIELDTPHGRVKALEKVSLMLHAGEIHGLVGESGSGRSLLARAVLGIPGPNWTITADRMMWDGRNLMEMSDVERRNLMGKDMAMIFQDPSGSLDPVITIGAQLIEAMPADKNVPFWRRGRERRLTAQKWLHKVGIKDPKRVMASYPWETSEGECQKVMIAMALANQPRLLIADEPTNSMEPSTQAQIFRLLAQLNQLQGVTIMMISHELETLADWCNNLTVLYCGQVMESGPIDELIREPLHPYTKALMDHLPDYRGNLPHKSLMPVLPGSAPALQHLPIGCRLGPRCPEARRECVHQPQLQHQKDRYYACHFPYRTETNNDDTAA
